Among the data in FireProtDB (doi:10.1021/bi00066a003) are unfolding free energy values, retold here.

B1: Phosphoglycerate kinase, P18912 (parent)
chain: MNKKTIRDVDVRGKRVFCRVDFNVPMEQGAITDDTRIRAALPTIRYLIEHGAKVILASHLGRPKGKVVEELRLDAVAKRLGELLERPVAKTNEAVGDEVKAAVDRLNEGDVLLLENVRFYPGEEKNDPELAKAFAELADLYVNDAFGAAHRAHASTEGIAHYLPAVAGFLMEKELEVLGKALSNPDRPFTAIIGGAKVKDKIGVIDNLLEKVDNLIIGGGLAYTFVKALGHDVGKSLLEEDKIELAKSFMEKAKEKGVRFYMPVDVVVADRFANDANTKVVPIDAIPADWSALDIGPKTRELYRDVIRESKLVVWNGPMGVFEMDAFAHGTKAIAEALAEALDTYSVIGGGDSAAAVEKFGLADKMDHISTGGGASLEFMEGKQLPGVVALEDK

Several values for one entry are separate records, joined by “and”; a condition that tells them apart may be missing. Equal entries are not always repeated.

In the data set the parent is B1. The conditions noted are these: Geobacillus stearothermophilus, pH 7.5, 25 °C, Fluorescence, TEA 50 mM, reversible: yes, structure 1PHP, whole UniProt chain shown.

On to W290Y W315Y F379W, for which the unfolding free energy is 4.95 kcal/mol and 10.8 kcal/mol and 8.93 kcal/mol (GdnHCl, transition: 4); 3.77 kcal/mol and 10.8 kcal/mol and 8.15 kcal/mol (Urea, transition: 4).

In the case of W290Y, the unfolding free energy (GdnHCl, transition: 3) is 11.4 kcal/mol and 8.2 kcal/mol; the unfolding free energy (Urea, transition: 3) was found to be 8.15 kcal/mol.
